# In patent CN101233156A (MEDAREX INC, dated 2008):
# T1: 人CD 19 (细胞表面上表达: Raji、Daudi、ARH-77细胞, 人CD 19转染的CHO细胞) (human, UniProt P15391 20-556)
# T1 construct: CD19 on the surface of B cell tumour lines (endogenous) or of CHO cells transfected with full-length cDNA of the transmembrane form; it is not tied word for word to the cells used; also called CHO-CD 19; CD 19-CHO
# T1 sequence: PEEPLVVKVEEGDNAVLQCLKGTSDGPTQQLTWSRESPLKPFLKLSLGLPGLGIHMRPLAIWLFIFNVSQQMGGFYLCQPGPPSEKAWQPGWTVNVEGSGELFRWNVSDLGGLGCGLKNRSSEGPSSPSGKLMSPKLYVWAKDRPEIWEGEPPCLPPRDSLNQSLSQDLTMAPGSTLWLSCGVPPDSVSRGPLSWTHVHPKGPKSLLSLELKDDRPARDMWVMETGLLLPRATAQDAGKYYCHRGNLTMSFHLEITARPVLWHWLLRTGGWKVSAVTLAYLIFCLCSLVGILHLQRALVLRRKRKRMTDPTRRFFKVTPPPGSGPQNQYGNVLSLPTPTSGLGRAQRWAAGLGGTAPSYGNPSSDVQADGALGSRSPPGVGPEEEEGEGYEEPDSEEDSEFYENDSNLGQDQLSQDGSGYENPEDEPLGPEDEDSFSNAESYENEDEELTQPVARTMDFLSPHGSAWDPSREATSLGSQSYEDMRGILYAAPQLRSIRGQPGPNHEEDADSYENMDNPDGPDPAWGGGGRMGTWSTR
# Molecular target: T1, 人CD 19 (细胞表面上表达: Raji、Daudi、ARH-77细胞, …)
# Experiment: Scatchard analysis, 125I-labelled antibody on Raji cells
binder,measurement,value
"抗CD 19人单克隆抗体21D4 (antibody, V domains shown, Human monoclonal antibody from KM mouse hybridoma; also called HuMAb 21D4; HuMab 21D4) VH: EVQLVQSGAEVKKPGESLKISCKGSGYSFSSSWIGWVRQMPGKGLEWMGIIYPDDSDTRYSPSFQGQVTISADKSIRTAYLQWSSLKASDTAMYYCARHVTMIWGVIIDFWGQGTLVTVSS VL: AIQLTQSPSSLSASVGDRVTITCRASQGISSALAWYQQKPGKAPKLLIYDASSLESGVPSRFSGSGSGTDFTLTISSLQPEDFATYYCQQFNSYPYTFGQGTKLEIK",Kd,~2.14 nM
"抗CD 19人单克隆抗体47G4 (antibody, V domains shown, 125I-labelled in the Scatchard assay; also called HuMAb 47G4; CD 19 HuMab 47G4) VH: QVQLVQSGAEVKKPGSSVKVSCKDSGGTFSSYAISWVRQAPGQGLEWMGGIIPIFGTTNYAQQFQGRVTITADESTSTAYMELSSLRSEDTAVYYCAREAVAADWLDPWGQGTLVTVSS VL: not shown",Kd,~12 nM
